In the nanobody polyreactivity screen of Harvey et al. (2022):

Experiment: yeast display, Sf9 membrane polyspecificity reagent, FACS + sequencing; frameworks hold sequencing errors
How it was run: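 Genes from sorted yeast were amplified by colony PCR, read by MiSeq 2 × 250 sequencing and filtered on CDR length. These cells carried a synthetic nanobody library in Saccharomyces cerevisiae BJ5465 and were sorted by FACS into low and high (top ~1%) gates on anti-HA and streptavidin fluorescence. Polyreactivity is labelled according to the gate of origin.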

Sequence | polyreactivity (PSR sort gate)
QVQLVESGGGLVQAGGRLRLSCAASGSTFHHNVMGWYRQAPGKEWELVAAITSSGGSTYYADSVKGRFTISRDNAKNTVYLQMNSLKPEDTAVYYCAKDKLIFYRVGSDYWGQGTQVNVSS | low polyreactivity
QVQLVESGGGLFQAGGSLRVSSAPSGITFYGYAMGWYRQAPGKERELVAAINRGGTGTYYADSVKGRFTISRYNAKNTVYLQMNSLTPEDTAVYYCNKAGYPLADPTAGKRQFDDWGQGTEVTVSS | low polyreactivity
QVQLVESGGGLVQAGGSLRLSCAASGSTFKYNAMGWYRQAPGKERELVASISRSGGSTYYADSVKGRFTISRDNAKNTVYLQMNSLKPEDTAVYYCAVRVSSHPVYHYNYWGQGTQVTVSS | high polyreactivity
QVQLVESGGGLVQAGCSLRLSCAASGSNFGMYTMGWYRQAPGKESELVAAISGGGGSTYYADSVKGRFTISRDTAKNTVYVQMNSLKPEDSAVYYCAAVLDLSEWYDYWGQGTQVTVSS | low polyreactivity
QVQLVESGGGLVQAGGRLRLTCAASGSTFPTYAMGWYRQAPGKERELVAAISTRGGSTYYADSVKGRFTISRDNAKNTVYLQMNSLKPEDTAVYYCATGKSLGRYHYEYWGQGSQVTVSS | low polyreactivity
QVQLVESGGGLDQAGGSLRLSCAASGSTFRRYAMGWYRQAPGKERELVAAITGSGGRTYYADSVKGRFTISRDNAKNTVYLQMNSLKPEDTAVYYCNAVSYIDYSRARIRYEYWGQGTQVTVSS | high polyreactivity
QVQLVESGGGLVQAGGSLRLSCAASGSTFEYYAMGWYRQAPGKEREFVAAITSTGGSTHYADSVKGRFTISRDNAKNTVYLQMNSLKPEDTAVYVCGKRSYGQTRAYSAGNYWGQGNQVTVSS | low polyreactivity
QVQLVESGGGLVQAGGSLRLSCAASGFTFNYYAMGGYRQAPGKERELVAAIDSGTSTNYADSVKGRFTISRDNAKNTVYLQMNSLKPEDTAVYYCAADPGIFDGIFDYWGQGSQVTVSS | low polyreactivity
QVQLVASGGALVQAGGSLRLSCAASGRISTYTMGWYRQGPGKERELVATISTDASTNYADSVKGRFTISRDNAKNTVYLQMNSLKPEATAVYYCAAVIVNQDYDYWGQGTQLTVSS | low polyreactivity
QVQLVESGGGLVQAGGSLRLSCAASGSIFNGYALGWYRQAPGKERELVAAISSGGCTNYADSVKGSFTISRDNAKNTVYLQMNSLKPEDTAVYYCDKDYGYYWPWHYIASYEYDYWGQGTQVTVSS | low polyreactivity
QVQLVESGGGLVQAGGSLRLSCAASGRTFVYNAMGWYRQAPGKERELVAAITTSGASTYYADSVKGRFTISRDNAKNTVYLQMNSLKPEDTAVYYCNAYSRYSYGRTYGYWGQGTQVTVSS | high polyreactivity
QVQLVESAGRLVQAGGSLRLSCDASGSTFKGYPIGWYRQAPGKERELVAAISRRGGSTYYADSVKGRFTISRDNAKNTVYLQMNSLKPEDTAVYYCAKEGQLRYDYWGQGTQVTVSS | high polyreactivity
QVQLVESGGGLVQAGGSLRLSCAASGFTFKSYAMGWYRQAPGKERELVASISRRGGSTYYADSVKGRFTISRDNAKNTVYLQMNSLKPEDTAVYYCAADKRPPYILDYWGLGTQVTVSS | high polyreactivity
QVQLVESGGGLVQAGGSLRLRCAASGSTFSGYAMGWYRKGPGKERELVAAISSGGGSTYYADSVKGRFTISRYNAKNTVYLQMNSLKPEDTDVYYCATGYPWYCGQGTQVTVSS | high polyreactivity
QVQLVESGGGLVQAGGSLRLSCADSGRIFRSNAMGWYRQAPGKERELVATITSSGGRTYYADSVKGRFTISRDNAKNSVYLQMNRLKPEVSAVYYCNAQQRTRGQKAQWVRDEYWGQGTQVTLSS | low polyreactivity
QVQLVESGGGLVQAGGSLRLSCAASGSTRIYDMGCYRQAPAKERELVAAISSTGSTYYADSVKGRFTISRDNAKNTVYLQMNSLKPEDTAVYYCAAARYYRYDRYYSWGQGTQVTVTS | high polyreactivity
QVQLVDSGGGLVQAGGSLRLSCAASGYTFEIYAIRWYRQAPGKERELVAAITRSGDSTYYADSVKGRFTISRDNSKNTVYLQMNSLKPEDTAVYDCNADYPGQYDSWGQGTQVTVSS | low polyreactivity
QVQLVESGGGLVQAGGSLRLSCAPSGITFRFYAMGWYRQAPGKEREFVAAISRSDSSYYADSVKGRFTISRDNAKNTVYLHMNSLKPEDSAVYYCAADSYRSAQGLDYWGQGSQVTVSS | high polyreactivity
QVQLVESGGGLVQAGGSLRLTCAASGSIFPRYAMGWYREAPGKERELVAAISFRGASTYYADSVKGRFTISRDTEKNTVYLQMNSLKPEDTAVYYWNAVSRSLNYDYWGQGTQVTVSS | high polyreactivity
QVQLVQSGGGVVQAGGSLRLSCAASGRIFNTNAMGWYRHAPGKERELVAGITDSGDSTYYADSVKGRFTISRDNAKITVYLQMYSLKPEDSAVYYCATDPASPYIYDFWGLGTQVTVSS | low polyreactivity
QVQLVESGGGLVQAGGSLRLSCAASGFTFYTYAMGWYRQAPGKERELVATITGRTGSTYYADSVKGRFTISRDNAKNTVYLQMNSLKPEDTAVYYCAADWGKLHVTWFRVNYWGQGTQVTVSS | low polyreactivity
QVQLVESGGGLVQAGGSLRLSCAASGSIFIAYGMGWYRQEPGKERELVAAITVSGGNTYYADSVKGRFTISRDNAKNTVYLQMKSLKPEDTAVYYCAADYWYYYGKGLYDYWGQGTQVTVSS | low polyreactivity
QVELVESGGGLVQAGGSLRLSCAASGSTFVDNDMGWYRQAPGKERELVAAAITARGGSTYYADSVTGRFTISRDNAKNTDYIQMNSLKPEDTAVYYCAAGRPGELDYWGQGTQVTVSS | low polyreactivity
QVQLVESGGGLVQAGGSLRLSCADSGSIFRYYFMGCYRQAPGKERELVSAISSGGRTYYADSVKGRFTISRDNAKNTVYLQMNSLNPEDTAVYYCNDQGLFYCEMDYWGQGTQVTVSS | high polyreactivity
QVQLVESGGGLVQAGGSLRLSCAASGSIFYFNAMGWYRQAPGKERELVASITSGGSTNYADSVKGRFTISRDNAKNTVYLQMNSLKPEDTAVYYCNKRVHYIAGRGYDYWGQGNQVTVSS | low polyreactivity
QVQLVESGGGLVQAGGSLRLSSAGSGSIFTGYAMGWYRPAPGKERELVAAIRTRGGSTYYADSVKGRFTISRDNAKNTVYLQMNSLKPEDNAVYYCANRYFGWYGNFDDWGQGTQVTVSS | high polyreactivity
QVQLVESGGGLVQAGGSLRLSCAASGSTFTVYAMGWYRQAPGKERELVAAIRDGSSTNYADSVKGRFTISRDNAKNTVYLQMNSLKPEDTAVYYCNAPYPPTGYGDDDYWGQGTQVTVSS | low polyreactivity
QVQLVESGGGLVQAGGSLRLSCAASGRTFQLNAMGWYRQAPGKERELVAAISTRGGSTYYADSVKGRFTISRDNAKNTVYLQMNRLKPEDTAVYYCAAVTKTLYRSYFLMYYWGQGTQVTVSS | high polyreactivity
QVQLQESGGGLEQAGGSLRLSCAASGIIFDNPNMGWYRQAPGKERELVATINSGATTNYADSVKGRFTISRDNAKNTVYLQMNSLIPEDTAVYYCAVDLSPTYFYYWGQGTQVTVSS | high polyreactivity
QVQLVESGGGLLQAGGSLRLRSPASGSIFEEYAMGWYRQAPGKERELVAAITRRGGNTYYADSVKGRFTISRDNAKNTVYLQMTSLKPEDTAVYYCAAPLGNYSWQYEYWGPGTQVTVSS | low polyreactivity
